The record followed here is EP4365192A1.

In assay [1] the target is Recombinant Human FGFR1 alpha (IIIc) Fc Chimera Protein (R&D systems, 658-FR-050) (human) (UniProt P11362). As to the kind of experiment: ELISA: FGFR1 alpha (IIIc)-Fc coated at 0.5 ug/ml; FGF sample at 80 ng/mL after 0 h at 37°C; detected with biotinylated anti-FGF antibody BAM233 and streptavidin-HRP; blank subtracted.
Assay [2] has the same target. Briefly: ELISA: FGFR1 alpha (IIIc)-Fc coated at 0.5 ug/ml; FGF sample at 80 ng/mL after 6 h at 37°C; detected with biotinylated anti-FGF antibody BAM233 and streptavidin-HRP; blank subtracted. Background: An ELISA detects its analyte on a solid surface through an enzyme-linked reagent.
For assay [3] the target is unchanged. Briefly: ELISA: FGFR1 alpha (IIIc)-Fc coated at 0.5 ug/ml; FGF sample at 80 ng/mL after 24 h at 37°C; detected with biotinylated anti-FGF antibody BAM233 and streptavidin-HRP; blank subtracted.
Assay [4] shares this target. As to the kind of experiment: ELISA: FGFR1 alpha (IIIc)-Fc coated at 0.5 ug/ml; FGF sample at 80 ng/mL after 48 h at 37°C; detected with biotinylated anti-FGF antibody BAM233 and streptavidin-HRP; blank subtracted.

Recombinant Human FGFR1 alpha (IIIc) Fc Chimera Protein (R&D systems, 658-FR-050) (human), sequence (P11362 22-376, change not shown): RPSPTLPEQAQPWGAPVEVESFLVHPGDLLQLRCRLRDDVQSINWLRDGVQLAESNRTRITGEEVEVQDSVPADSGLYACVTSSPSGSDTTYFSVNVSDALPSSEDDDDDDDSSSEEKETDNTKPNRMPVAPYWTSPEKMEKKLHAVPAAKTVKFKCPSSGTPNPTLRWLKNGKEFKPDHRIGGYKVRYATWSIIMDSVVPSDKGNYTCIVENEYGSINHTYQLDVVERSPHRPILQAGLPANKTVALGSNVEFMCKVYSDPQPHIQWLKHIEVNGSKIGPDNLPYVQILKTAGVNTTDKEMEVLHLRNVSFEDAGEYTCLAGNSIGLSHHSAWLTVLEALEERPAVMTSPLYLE

On to “FGF301 (FGF2_native_Pig) (from UniProt P03969 10-155) (ligand)”, for which the Absorbance (450 nm) (absorbance (450 nm)) is 2.3 in assay [1], 2.1 in assay [2], 1.5 in assay [3] and 0.8 in assay [4].
